Target: A/Puerto Rico/8/1934 (H1) HA (influenza A virus A/Puerto Rico/8/1934 (H1N1)) (UniProt P03452)

**Q.** Which HA-pseudovirus neutralization titer (IC95), 293T cells does the source give for MAb C179 (antibody) here?
**A.** 0.31 mg/L

**Q.** What about the Plaque reduction titer (IC50), replicating virus on MDCK cells of the same substance?
**A.** 27.7 mg/L

**Q.** MAb CR6261 (antibody) was tested. Which HA-pseudovirus neutralization titer (IC95), 293T cells did it give?
**A.** 0.09 mg/L

**Q.** With MAb FI6 (antibody) as the substance, how does the HA-pseudovirus neutralization titer (IC95), 293T cells read?
**A.** 0.11 mg/L

**Q.** What about the Plaque reduction titer (IC50), replicating virus on MDCK cells of the same substance?
**A.** 3.7 mg/L
